Measured values as given in patent US20240181040A1.
Where two headings read alike, the source gives them in different places.

How the values were obtained:
[1] = target: BG505 T332N gp160 on pseudo-typed virus (HIV-1 clade A, BG505)
[2] = target: clade C HIV-1 1086.c ENV SOSIP trimer (HIV-1 clade C, 1086.c); test: BLI, antibody on anti-human Fc biosensor, Env protein as analyte
[3] = target: BG505 SOSIP.664 envelope trimer protein (HIV-1 clade A, BG505); test: as above
[4] = target: clade C HIV-1 1086.c ENV SOSIP trimer (HIV-1 clade C, 1086.c); test: BLI, antibody on anti-human Fc biosensor, Env in solution, global fit
[5] = target: BG505 SOSIP.664 envelope trimer protein (HIV-1 clade A, BG505); test: as above
[6] = target: 1086.c gp160 wt on pseudo-typed virus (HIV-1 clade C, 1086.c)
[7] = target: clade C HIV-1 1086.c ENV SOSIP trimer (HIV-1 clade C, 1086.c); test: BLI, antibody on anti-human Fc biosensor, Env protein as analyte; the sheet has this in the 1086.C SOSIP rows, text paragraph 67 gives this KD for BG505 SOSIP.664
[8] = target: 1086.c gp160 wt on pseudo-typed virus (HIV-1 clade C, 1086.c); test: cell-based or functional assay
[9] = target: clade C HIV-1 1086.c ENV SOSIP trimer (HIV-1 clade C, 1086.c); test: BLI, antibody on anti-human Fc biosensor, Env in solution, global fit; remark: listed apart in the source
[10] = target: HIV-1 Env 1086.C D7gp120 envelope glycoprotein (HIV-1 clade C, 1086.c); test: as above
[11] = target: HIV-1 Env 1086.C gp140C envelope glycoprotein (HIV-1 clade C, 1086.c); test: as above
[12] = target: clade C HIV-1 1086.c ENV SOSIP trimer (HIV-1 clade C, 1086.c); test: BLI, antibody on anti-human Fc biosensor, Env protein as analyte; remark: listed apart in the source
[13] = target: HIV-1 Env 1086.C D7gp120 envelope glycoprotein (HIV-1 clade C, 1086.c); test: as above
[14] = target: HIV-1 Env 1086.C gp140C envelope glycoprotein (HIV-1 clade C, 1086.c); test: as above
[15] = target: clade C HIV-1 1086.c ENV SOSIP trimer (HIV-1 clade C, 1086.c); test: BLI, antibody on anti-human Fc biosensor, Env protein as analyte; text paragraph 65 prints 0.12 nM
[16] = target: BG505 SOSIP.664 envelope trimer protein (HIV-1 clade A, BG505); test: BLI, antibody on anti-human Fc biosensor, Env protein as analyte; text paragraph 65 prints <1.03x10^-3 nM

Row | Substance | neutralisation IC50, pseudo-typed virus on TZM-bl cells [1] | koff [2] | kon [2] | koff [3] | kon [3] | Kd [4] | Kd [5] | neutralisation IC50, pseudo-typed virus on TZM-bl cells [6] | other results
1 | 2G12 (antibody) | 0.29 µg/mL | 5.61e-05 s⁻¹ | 821000 M⁻¹ s⁻¹ | 4.83e-08 s⁻¹ | 254000 M⁻¹ s⁻¹ | 0.07 nM | < 0.001 nM |  | 
2 | 3BNC117 (antibody) | 0.007 µg/mL | 3.92e-05 s⁻¹ | 132000 M⁻¹ s⁻¹ | < 1e-07 s⁻¹ | 44700 M⁻¹ s⁻¹ | 0.3 nM | 0.00108 nM | 0.21 µg/mL | 
3 | 10-1074 (antibody) | 0.003 µg/mL |  |  | < 1e-07 s⁻¹ | 48600 M⁻¹ s⁻¹ |  | < 0.001 nM |  | 
4 | 35O22 (antibody) |  |  |  |  |  |  | 0.0013 nM | > 4 µg/mL | Kd [7]: 0.0013 nM
5 | 3869 (antibody) |  | < 1e-07 s⁻¹ | 2.56e+06 M⁻¹ s⁻¹ | 4.83e-08 s⁻¹ | 24200 M⁻¹ s⁻¹ | < 0.001 nM | 0.002 nM | > 4 µg/mL | 
6 | CD4-IgG2 (Fc fusion) | > 4 µg/mL |  |  |  |  |  |  |  | neutralization of pseudotyped virus in TZM-bl cells, IC50 [8]: 1.72 µg/mL
7 | CH58 (antibody) |  |  | 680000 M⁻¹ s⁻¹ |  |  | < 0.001 nM |  |  | Kd [9]: < 0.00103 nM; Kd [10]: 9.31 nM; Kd [11]: 0.22 nM; koff [12]: < 1e-07 s⁻¹; kon [12]: 680000 M⁻¹ s⁻¹; koff [13]: 0.0012 s⁻¹; kon [13]: 129000 M⁻¹ s⁻¹; koff [14]: 1.25e-05 s⁻¹; kon [14]: 56800 M⁻¹ s⁻¹
8 | CH59 (antibody) |  |  |  |  |  |  |  | > 4 µg/mL | Kd [9]: < 0.001 nM; Kd [10]: 1.81 nM; Kd [11]: 0.0012 nM; koff [12]: < 1e-07 s⁻¹; kon [12]: 63700 M⁻¹ s⁻¹; koff [13]: 0.000105 s⁻¹; kon [13]: 57900 M⁻¹ s⁻¹; koff [14]: < 1e-07 s⁻¹; kon [14]: 10200 M⁻¹ s⁻¹
9 | CH106 (antibody) | > 4 µg/mL | 6.64e-05 s⁻¹ | 12500 M⁻¹ s⁻¹ | < 1e-07 s⁻¹ | 13700 M⁻¹ s⁻¹ | 5.33 nM | 0.00351 nM | 3.63 µg/mL | 
10 | F105 (antibody) |  | < 1e-07 s⁻¹ | 30400 M⁻¹ s⁻¹ | < 1e-07 s⁻¹ | 3750 M⁻¹ s⁻¹ | 0.00172 nM | 0.0129 nM |  | 
11 | HJ16 (antibody) | > 4 µg/mL | 0.000151 s⁻¹ | 42200 M⁻¹ s⁻¹ | 0.000128 s⁻¹ | 99500 M⁻¹ s⁻¹ | 3.59 nM | 1.29 nM | 3.82 µg/mL | 
12 | IgG1 b12 (antibody) |  | 9.85e-05 s⁻¹ | 811000 M⁻¹ s⁻¹ |  |  | 0.12 nM |  | > 4 µg/mL | Kd [15]: 0.122 nM
13 | N6 (antibody) | 0.031 µg/mL | < 1e-07 s⁻¹ | 52300 M⁻¹ s⁻¹ | < 1e-07 s⁻¹ | 42200 M⁻¹ s⁻¹ | < 0.001 nM | 0.00114 nM | 0.023 µg/mL | 
14 | PG09 (antibody) | 0.02 µg/mL | 0.000475 s⁻¹ | 38200 M⁻¹ s⁻¹ | 0.0001 s⁻¹ | 47600 M⁻¹ s⁻¹ | 12.4 nM | 2.1 nM |  | 
15 | PG16 (antibody) | 0.011 µg/mL |  |  | 0.000358 s⁻¹ | 48600 M⁻¹ s⁻¹ |  | 7.35 nM |  | 
16 | PGT121 (antibody) | 0.003 µg/mL | 7.93e-05 s⁻¹ | 460000 M⁻¹ s⁻¹ | 5.35e-06 s⁻¹ | 34900 M⁻¹ s⁻¹ | 0.17 nM | 0.15 nM |  | neutralization of pseudotyped virus in TZM-bl cells, IC50 [8]: < 0.001 µg/mL
17 | PGT126 (antibody) | 0.006 µg/mL | 0.000462 s⁻¹ | 1.26e+06 M⁻¹ s⁻¹ | < 1e-07 s⁻¹ | 268000 M⁻¹ s⁻¹ | 0.37 nM | < 0.001 nM |  | 
18 | PGT128 (antibody) | 0.003 µg/mL | 0.000414 s⁻¹ | 1.18e+06 M⁻¹ s⁻¹ | < 1e-07 s⁻¹ | 78600 M⁻¹ s⁻¹ | 0.35 nM | < 0.001 nM |  | 
19 | PGT145 (antibody) | < 0.001 µg/mL | 0.00194 s⁻¹ | 1.59e+06 M⁻¹ s⁻¹ | 0.000482 s⁻¹ | 187000 M⁻¹ s⁻¹ | 1.22 nM | 2.57 nM |  | 
20 | VRC01 (antibody) | 0.06 µg/mL | < 1e-07 s⁻¹ | 72800 M⁻¹ s⁻¹ | < 1e-07 s⁻¹ | 23200 M⁻¹ s⁻¹ | < 0.001 nM | 0.0021 nM | 0.49 µg/mL | 
21 | VRC03 (antibody) | 2.83 µg/mL |  |  | < 1e-07 s⁻¹ | 78600 M⁻¹ s⁻¹ |  | < 0.00103 nM |  | Kd [16]: < 0.001 nM
22 | VRC-CH31 (antibody) | 0.011 µg/mL |  |  |  |  |  |  | 2.16 µg/mL | 
